Results on 2 molecules are retold here after article PMC7363588, “Mapping of the FGF14:Nav1.6 complex interface reveals FLPK as a functionally active peptide modulating excitability” (Physiological Reports, 2020).

One assay concerns Nav channels. As to conditions: peptide sequences derived from the LITFILKK motif of Navβ4 cytoplasmic tail; ref Grieco, Malhotra, Chen, Isom, & Raman, 2005; White et al., 2019; cited from earlier work. An excerpt:
The presence of other accessory proteins that directly interact with Nav1.6 in the native system may contribute to the reported activity of FLPK. A critical determinant required for repetitive firing in MSN and Purkinje neurons is the Navβ4 accessory subunit (Ji et al., 2017; White et al., 2019).

For assay [1], the target named is T1, FGF14-1b (aa 64-252), purified recombinant (human) (UniProt Q92915).
T1 sequence: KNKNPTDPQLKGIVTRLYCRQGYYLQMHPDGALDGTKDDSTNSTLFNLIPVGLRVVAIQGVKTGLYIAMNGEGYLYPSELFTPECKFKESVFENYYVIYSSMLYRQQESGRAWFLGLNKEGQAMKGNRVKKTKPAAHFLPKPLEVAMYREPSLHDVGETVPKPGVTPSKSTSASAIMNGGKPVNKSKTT
The experiment in a line: SPR; Biacore T100, 25°C; FGF14 (RU 16,000), FGF14 V160A (RU 18,000) or Nav1.6 C-tail (RU 12,000) amine-coupled on CM5 chip; peptides 1-100 µM in HBS-P+ at 50 µl/min, 180 s association, 180 s dissociation; 1:1 binding model.

With LITFILKK, the “effect on fast inactivation and Na^+ currents” value in the assay on Nav channels was “prevent stable fast inactivation and generate resurgent and persistent Na^+ currents through a voltage‐dependent open‐channel block”.
As for FLPK [FLPK tetrapeptide], in assay [1], the koff came out at 0.000431 s⁻¹ and the on-rate constant (kon) is 84.4 M⁻¹ s⁻¹.

As usually defined, the koff is a measure of how fast the partners let go of each other. Usually kon stands for the rate constant with which the complex forms.
